# PMC4117581, “Strain-Specific Variation of the Decorin-Binding Adhesin DbpA Influences the Tissue Tropism of the Lyme Disease Spirochete” (PLoS Pathogens, 2014)
# Columns and labels:
# [1] = target: Recombinant human decorin (human) (UniProt P07585); assay: SPR; Biacore 3000; 10 µg biotinylated decorin on an SA chip; 0-500 nM DbpA injected at 10 µL/min, 25°C; control flow cell with PBS; 1:1 Langmuir model
# [2] = target: Recombinant human decorin (human) (UniProt P07585); assay: ELISA; quantitative ELISA; 1 µg decorin coated on microtiter wells; 0.03125-2 µM histidine-tagged DbpA added; detected with mouse anti-histidine tag and HRP anti-mouse IgG; KD from a fit of the curve
# [3] = target: T1, Recombinant human decorin (human, UniProt P07585 31-359, biotin (biotinylated decorin on the SA chip in the SPR experiment; sites not stated)); assay: as above; settings: both partners purified
# T1 construct: Decorin, human, recombinant; Decorin is a proteoglycan that carries dermatan sulfate; Secreted from CHO cells, so probably the mature protein (surmise); source: stably transfected Chinese hamster ovary cells (ATCC CCL 61), purified; gift from MedImmune
# T1 sequence (P07585 31-359): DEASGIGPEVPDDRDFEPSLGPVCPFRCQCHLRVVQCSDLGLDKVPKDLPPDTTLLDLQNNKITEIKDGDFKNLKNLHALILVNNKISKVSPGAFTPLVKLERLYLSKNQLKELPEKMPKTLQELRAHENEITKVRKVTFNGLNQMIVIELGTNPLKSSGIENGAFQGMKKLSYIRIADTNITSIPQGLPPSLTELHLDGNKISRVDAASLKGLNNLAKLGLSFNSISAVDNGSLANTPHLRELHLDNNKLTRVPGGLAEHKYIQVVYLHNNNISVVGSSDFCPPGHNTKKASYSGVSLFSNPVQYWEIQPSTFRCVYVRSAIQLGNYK
# [4] = target: T1, Recombinant human decorin; assay: SPR; Biacore 3000; 10 µg biotinylated decorin on an SA chip; 0-500 nM DbpA injected at 10 µL/min, 25°C; control flow cell with PBS; 1:1 Langmuir model; settings: both partners purified
# Sequence of Recombinant human decorin (human) (P07585 31-359): as above
Molecule,Kd [1],koff [1],kon [1],Kd [2],Kd [3],Kd [4],koff [4],kon [4]
"DbpA_(VS461), recombinant histidine-tagged DbpA of B. afzelii strain VS461 (natural protein)",260 nM,0.04 s⁻¹,152000 M⁻¹ s⁻¹,290 nM,,,,
"DbpAPBr, recombinant histidine-tagged DbpA of B. garinii strain PBr (natural protein)",90 nM,0.13 s⁻¹,1.83e+06 M⁻¹ s⁻¹,60 nM,,,,
"DbpA_(B356), recombinant histidine-tagged DbpA of B. burgdorferi strain B356 (natural protein)",840 nM,0.06 s⁻¹,66000 M⁻¹ s⁻¹,950 nM,,,,
"DbpA_(N40-D10/E9), recombinant histidine-tagged DbpA of B. burgdorferi strain N40-D10/E9 (from UniProt O50917 30-191) (natural protein)",710 nM,0.07 s⁻¹,97000 M⁻¹ s⁻¹,850 nM,,,,
"DbpA297, recombinant histidine-tagged DbpA of B. burgdorferi strain 297 (from UniProt O50917 30-187) (natural protein)",300 nM,0.1 s⁻¹,351000 M⁻¹ s⁻¹,140 nM,,,,
"DbpAB31, recombinant histidine-tagged DbpA of B. burgdorferi strain B31 (natural protein) ATKIRLERSAKDITDEIDAIKKDAALKGVNFDAFKDKKTGSGVSENPFILEAKVRATTVAEKFVIAIEEEATKLKETGSSGEFSAMYDLMFEVSKPLQKLGIQEMTKTVSDAAEENPPTTAQGVLEIAKKMREKLQRVHTKNYCTLKKKENSTFTDEKCKNN",,,,,210 nM,280 nM,0.11 s⁻¹,417000 M⁻¹ s⁻¹
